The target of experiment [1] is T1, GST-Plk-1 PBD (residues 326-603) interaction with mitotic phosphoproteins (Homo sapiens, UniProt P53350).
T1 construct: GST-Plk-1 (residues 326-603) was immobilized on glutathionine beads; made in house; host or cells: E. coli BL21
In words: Peptide competition of GST-Plk-1 PBD pull-down of MPM-2 mitotic phosphoproteins from HeLa lysates. It counts as binding. Conditions: 320 μM peptide, 45 minutes at 4° C., nocodazole-arrested HeLa lysates. How it is done:
HeLa cells were arrested in interphase or G2/M by treatment with aphidicolin (5 μg/mL) or nocodazole (50 ng/mL), respectively, for 16 hours. Cells were lysed in 25 mM Tris/HCl (pH 7.5) containing 125 mM NaCl, 0.5% NP-40, 5 mM EDTA, 2 mM DTT, 4 μg/mL pepstatin, 4 μg/mL aprotinin, 4 μg/mL leupeptin, 1 mM Na3VO4, 50 mM NaF, and […] microcystin, and 150 μgs of lysate incubated with 10 μL of glutathione agarose beads containing 2-5 μg of GST-Plk-1 (residues 326-603), GST-Pin1, or GST for 30 minutes at 4° C. Beads were washed four times with lysis buffer. Precipitated proteins were eluted in sample buffer and detected by blotting with monoclonal MPM-2 (Upstate Biotechnology, Inc.) or polyclonal anti-Cdc25C (Santa Cruz Biotechnology, Santa Cruz, Calif.). For peptide competition experiments, GST-Plk-1 (residues 326-603) was immobilized on glutathionine beads and preincubated with 320 μM of PoloBoxtide-optimal, −8T, or −7V for 45 minutes at 4° C. For binding experiments involving mutant cdc25C, HeLa cells were transfected with wild-type and mutated versions of HA-tagged Cdc25C in pECE using Superfect (Qiagen, Valencia, Calif.). Nocodazole (50 ng/mL) was added seventeen hours after transfection and cells incubated for an additional 14 hours to arrest them in G2/M. Point mutations of Cdc25C were constructed using the QuickChange site-directed mutagenesis system (Stratagene) and verified by DNA sequencing.

Experiment [2] concerns the target T2, Plk-1 PBD (residues 326-603) (Homo sapiens, UniProt P53350).
T2 construct: sample cell containing 15 μM Plk-1 PBD (residues 326-603); GST (N, cleaved yes); made in house; host or cells: E. coli BL21
In words: Isothermal titration calorimetry of peptides with Plk-1 PBD. It is filed as binding. Conditions: ITC; no detectable binding for a Plk1 PBD concentration of at least 150 μM. How it is done:
For deletion mapping of the PBD, C-terminal fragments of Plk-1 were generated by PCR and cloned into the EcoRI and XhoI sites of pcDNA3.1 (Invitrogen). For production of recombinant PBD as a GST fusion in bacteria, the 326-603 fragment of Plk-1 was ligated into the EcoRI and XhoI sites of pGEX-4T (Pharmacia), transformed into BL21, and induced in late log-phase cells at 37° C. for 3.5 hours in the presence of 0.4 mM IPTG. For measurements of peptide binding affinity by ITC, GST-Plk-1 (326-603) was isolated from bacterial lysates using glutathione agarose, cleaved from GST using thrombin (10 U/mL), and purified by anion exchange chromatography (Q Sepharose HP, Pharmacia).
Peptides were synthesized by solid phase technique with two C-terminal lysines to enhance solubility, purified by reverse phase HPLC following deprotection, and confirmed by MALDI-TOF 9 Matrix-assisted laser desorption/ionisation-time of flight mass spectrometry. Some peptides contained an additional tyrosine residue to facilitate concentration determination by optical absorbance. calorimetry measurements were performed using a VP-ITC microcalorimeter (MicroCal Inc., Studio City, Calif.). Experiments involved 10 μL injections of peptide solutions (150 μM-180 μM) into a sample cell containing 15 μM Plk-1 PBD (residues 326-603) in 50 mM Tris/HCl (pH 8.1), 200 mM NaCl, 2 mM TCEP. Thirty injections were performed with a spacing of 240 s and a reference power of 25 μCal/s. Binding isotherms were plotted and analyzed using Origin Software (MicroCal Inc. Studio City, Calif.).
Peptides were synthesized by solid phase technique with two C-terminal lysines to enhance solubility. Some peptides contained an additional tyrosine residue to facilitate concentration determination by optical absorbance. Isothermal titration calorimetry was performed using a VP-ITC microcalorimeter (MicroCal Inc. Studio City, Calif.) by titration of 15-40 μM solutions of PBD proteins with 30×10 μl injections of […] peptide in a starting volume of 1.4-2.0 ml. Binding isotherms were plotted and analyzed using Origin Software (MicroCal Inc. Studio City, Calif.). Binding of in vitro translated Plk1 PBD (wild type and mutants) to bead-immobilized pTP and TP peptide libraries was performed as described previously (Elia et al., Science 299:1228-1231, 2003). pTP and TP indicate the peptide libraries biotin-Z-Gly-Z-Gly-Gly-Ala-X-X-B-X-pThr-Pro-X-X-X-X-Ala-Lys-Lys-Lys SEQ ID NO: 30 biotin-Z-Gly-Z-Gly-Gly-Ala-X-X-B-X-Thr-Pro-X-X-X-X-Ala-Lys-Lys-Lys SEQ ID NO: 31, respectively, where pThr is phosphothreonine, Z is aminohexanoic acid, X denotes all amino acids except Cys, and B is a biased mixture of the amino acids P, L, I, V, F, M, W.
Background: ITC needs no label: the signal is the heat of the interaction.

T1 sequence (P53350 326-603): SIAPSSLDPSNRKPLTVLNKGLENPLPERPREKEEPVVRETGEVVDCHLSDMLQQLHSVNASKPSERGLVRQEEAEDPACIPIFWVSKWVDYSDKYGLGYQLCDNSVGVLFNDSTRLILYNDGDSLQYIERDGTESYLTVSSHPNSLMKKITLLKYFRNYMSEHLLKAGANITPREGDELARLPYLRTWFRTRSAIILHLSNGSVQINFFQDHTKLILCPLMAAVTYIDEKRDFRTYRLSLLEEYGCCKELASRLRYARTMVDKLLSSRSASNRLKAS
T2 sequence (P53350 326-603): as above

On to “MAGPMQ-S-T-P-LNGAKK (MAGPMQSTPLNGAKK) [PoloBoxtide-8T]”, for which the “effect of peptide pre-incubation on GST-Plk-1 PBD binding of MPM-2 epitopes” value in experiment [1] was “not”; in experiment [1] (listed as 8T), “had no effect”. Further, the “peptide binding to Plk-1 PBD by ITC (in words)” value in experiment [2] was “complete loss of binding”.

The record behind these values is US20110104713A1, “PRODUCTS AND PROCESSES FOR MODULATING PEPTIDE-PEPTIDE BINDING DOMAIN INTERACTIONS” (priority 2002, published 2011).
